From the DeepSol protein solubility set

experiment: soluble on expression in E. coli; label from the status in PepcDB or PDB records

| Sequence | soluble on expression in E. coli |
| --- | --- |
| MIAKEKILKGFETAEARWARFGPYYAMFPLEFAFDVVEKYSKNGDYIIDPFAGRCSSIYAGGVLGRNSLGLEINPVGWLYGTVKLHPAEKEEVIDRLLEIYSKRNYYNRAIQKMPEFYRICYCDEVLKFLLAARTHLDWRNNKVDATLMSILLIYLHAKIGEGLSNQMRMTKSMGMNYSVQWWKKNNMTTPPEINPCDFILKKIEWRYEKGKPKVSESAVVFGDSSNKLISIAERAINNDIKFSLLFTSPPYYSITDYHADQWLRLWLLGGSENPQSLKDKHKGRFVNKQEYYDLLDNVFGLCAKMMKRESTVYVRTDKREFTFNSTLEILKRHFPNHSVKIVEKPLTKDTKTQTKLFGDKTMKPGEVDIIMSRK | not soluble |
| MQTLKYISGYSPDIQRQVQQLLESGKLGDVLLRRHPQVHEIRSDKALYDYTQGIKNQFLRQSSPLSKVIFDDKISMSHHALGLHSYVARVQGNKIKAKNEIRISSRLKRVPEPLLRMVVVHELAHLKEKDHNKAFYNLCTYMEPDYHQFEFDLRLLLTCIDANQSPYATNSINLEHHHHHH | soluble |
| MTPQELNAECHACDKTPPAANTYKGWSGFVGLAAQLNQAWRVGYDITSGYRVPNASEVYFTYNHGSGNWLPNPNLKAERSTTHTLSLQGRSEKGMLDANLYQSNYRNFLSEEQKLTTSGTPGCTEENAYYGICSDPYKEKLDWQMKNIDKARIRGIELTGRLNVDKVASFVPEGWKLFGSLGYAKSKLSGDNSLLSTQPLKVIAGIDYESPSEKWGVFSRLTYLGAKKVKDAQYTVYENKGWGTPLQKKVKDYPWLNKSAYVFDMYGFYKPAKNLTLRAGVYNLFNRKYTTWDSLRGLYSYSTTNAVDRDGKGLDRYRAPGRNYAVSLEWKF | not soluble |
| MSLKIKVGLIFSGIACLFLTACVNQVKQNTTFENTLTQKYCGDDFFNQNLEKIKKNDDVIYTGLNAGLIARNCGDFNKSNVFFDAVEESYKYDVDLENVSPKAAKFIGTTLLNDNIVDYDGSLYERIMVNIYKALNYMEEDDYENARVEFNRVLMRQDKAKEYFAKEIEKNRADLDKAKEDKNYDKNMNENSKVIEAQYDNLFKEFDTTKNFINPYATYLASIFFFMDKDYRKAADLFREVAIIYPKNKTIKKEAKIFKEYATKIKVKKAKKYVFVVYENGFGVVKDEFALTLPFIVDKKIISTNIALQTLKKREASFANLNINGQNTNDFVDLDNIVATEFKINMPAMIAKALAQTIIKTTLNVAVANNDSTGGWLSLATAVATAATNKADVRSWRGLPKSIAIATIENDGNLEIKDPQGNILFQKSLDKNKNALVIVRSFAPYLPASVAIMEKEGHHHHHH | not soluble |
| MAHHHHHHMAYGDDSKIVEGIVGERNIYKRREESTETNPFQSKHKKRLLFVLDVSASMYRFEGMDHRLSKLLESTVMVMEAFAGFEEKIDYAMVGHNGDSACIELVSFGHSPANQKARMEVCQRMVAHAQYCWSGDNTVEAMRQSIDLVTAEKGDAYLVFVISDANLPRYGIQPSELSAIMRSHKEVQMFCIFIATLGEQASNLQAEMPPGHGFECLDTQALPHILKQIFFSVNLL | not soluble |
| MSAVALPRVSGGHDEHGHLEEFRTDPIGLMQRVRDELGDVGTFQLAGKQVVLLSGSHANEFFFRAGDDDLDQAKAYPFMTPIFGEAVVFDASPERRKEMLHNAALRGEQMKGHAATIEDQVRRMIADWGEAGEIDLLDFFAELTIYTSSACLIGKKFRDQLDGRFAKLYHELERGTDPLAYVDPYLPIESFRRRDEARNGLVALVADIMNGRIANPPTDKSDRDMLDVLIAVKAETGTPRFSADEITGMFISMMFAGHHTSSGTASWTLIELMRHRDAYAAVIDELDELYGDGRSVSFHALRQIPQLENVLKETLRLHPPLIILMRVAKGEFEVQGHRIHEGDLVAASPAISNRIPEDFPDPHDFVPARYEQPRQEDLLNRWTWIPFGAGRHRCVGAAFAIMQIKAIFSVLLREYEFEMAQPPESYRNDHSKMVVQLAQPAAVRYRRRTGVHHHH | soluble |
| MSLSQLFKSFDASEKTQLICFPFAGGYSASFRPLHAFLQGECEMLAAEPPGHGTNQTSAIEDLEELTDLYKQELNLRPDRPFVLFGHSMGGMITFRLAQKLEREGIFPQAVIISAIQPPHIQRKKVSHLPDDQFLDHIIQLGGMPAELVENKEVMSFFLPSFRSDYRALEQFELYDLAQIQSPVHVFNGLDDKKCIRDAEGWKKWAKDITFHQFDGGHMFLLSQTEEVAERIFAILNQHPIIQPEGGSHHHHHH | soluble |
| GSHMAASATAAAVAAEVISVHSLEQWTMQIEEANTAKKLVVIDFTASWCGPSRIMAPVFADLAKKFPNAVFLKVDVDELKPIAEQFSVEAMPTFLFMKEGDVKDRVVGAIKEELTAKVGLHAAAQ | soluble |
| TTSLRAYRLGEHGQVLEQRALSAGIMQLPTTPRLISGQLCSDGFELAFDQACGDWLDAEPGLPVIACGMVGSAQGWREAAYRETPASVNQLSAALQTVRSQRGVTVHIIPGVLQRSTLPNVMRGEETQVLGVLAGLETQLDNQPLLIGLPGSHSKWVQVTRGRIVHFDTFMTGEVYAALCAHTILGRTMQPAEAFDDQAFDRGLSIALSDTGSAGPLSTIFSTRTLGLTGQLAASAQPDYLSGLLFGHELGAIARLHLHTHEQLPAVILIGSEALCARYSRGLTVCGFPQVTLAEQATERGLWQVAVQAGLIAR | not soluble |
| MVDTMMNTNTDGVTAVPPIFPLPSTTPNRNNNNELAMLAQKQIVAGLLLQQPTIVQAAVNGTNSQKHLADIDYTNVIQTLQALGTTNLKAFSLLLDPQSQTSQLISEDTRPSASSSPSSTATAVSNSGQSNATSTSSSSTEPEYKPRNVREKVYADGYIMSFDKKSCCGTKEFWRCERKNDCNARMHSDINTREIVRKLHPHNHEKPSPEELAFYEQDFSTLHPNYCHPVKSINRSYMQRKLSRASHVSQALPIAPQQIKAEPMEVDTTNQTIQNFQQNNNLMLLASINAAATAAAAATSAGISPPVVGQKRVSTTVMPITLKSQRTTPKEEEDSSQLMSQEEFRITYELTKKLMEMMKPKTEIGVRWQGDEGSILLFLSHDNGAEENVFFPVVVMNRDEKSLITALEGFTGKRCEGKLALCYSQRVNVLVHEALISNWTHGKLFLVNTDAPALWRLTPVDAFGEPLNHV | not soluble |
| MGSDKIHHHHHHMQPLAQTLDRIRTISEYLKPEFGIPADGNWVSVADDFVSGSPWLTSMIAAEQTRLRTTSAAIIGSTLLQNYQWPIIPTVVACYLFEQRVPDLAPANTRVHFTAEHQADALALLGGRFSALPDDPAAEHPDATIVPDRAALRDAMRTGIESHFAVVIEHICAALGCKPRGLWLNVADAVANALIWLAQQHAAFDPTQIEAEVEAVIRVPGSPLNNRQVGLIQLSYGENRQLFLRRATCCYWYKTEGGEYCLTCPHRTAEDRQARLLAYMAQKYTQQQQLVQEEVTA | not soluble |
| MFAGCATYAGLNFDQLFGPQLVRERTASVETPQADFFQREVKPIVDNRCVVCHACYDAPCQLKLSSVEGIDRGASKALVYEGTRLTAAAPTRLFEDAETTQEWRDAGFHPVLNERDQSMAANLEAGLIARLLQQKERHPLPDQVQLEGFDFSIDREQTCPTIEEYEQYEKDNPNWGMPFGMPNLTNSEYHTLMTWLENGAIMNMHTPISDQEQAKINQYETLLNHSDLKNQLMSRYIYEHLFLSHLYFSELSEKPRFFTLVRSATPPGQPVKRISTRRPYDDPGVERVYYRIIPEQGTIVDKTHMPFALNKQRISNWKKWFIEADYSVTQLPSYEPEVAANPMTAFIDMPVKSRFKFMLDNAQNTIMAYIKGPVCRGQLALNVINDRFWVFFLDPDKADIPEVNEFYRSQADNLKLPAEQESNTLPVTNWVKYARQQARYLEAKSEFTNNWFKHGENLSTDVIWDGNGTNPNAALTVFRHFDSASVVQGLVGEQPKTVWILDYALLERIHYLLVAGFDVYGNFGHQLMTRMFMDFLRLEGESNFVTLLPADMRHQLQSSWYQDQSPQLSDFLQRNVKPFNQPTSVVYKTDDPKTELLNMMRKRLSPVLLPRYEITDTALSDKTEKELKRIGQVRGEGLQTVPQITMLMVRSKSGKDELFTLLHNNAHTNISSLFDEESNRDFANDDMTIVRGVVGSYPAAFFSLKENQVKEFVDQFSAIQNEADYVKLLDSFAIRRSSEKFWPFSDRIHNWYRTNQPIEFGLLDYNRFENR | not soluble |
